According to patent publication US20220177583A1:

Legend:
[1] = target: human CLDN6, endogenously expressed on cancer cell lines (human) (UniProt P56747); assay: flow cytometry on UMUC4 cells (Positive Cell Line), secondary antibody alone; the same number stands under the 0.1µg and the 1µg head
[2] = target: human CLDN6, endogenously expressed on cancer cell lines (human) (UniProt P56747); assay: FACS on OVCA429 cells, sample 1: no 1o, 2nd antibody NBP1-51902, 2o wash 2x
[3] = target: human CLDN6, endogenously expressed on cancer cell lines (human) (UniProt P56747); assay: FACS, OVCA429 cells, secondary antibody alone (negative control, background; column 1.5 ug)
[4] = target: T1, mouse CLDN6 fused to GFP, expressed on engineered HEK293T cells (mouse) (UniProt Q9Z262); assay: FACS, 293T clone with mouse CLDN6, secondary antibody alone (negative control, background)
T1 sequence (looked up): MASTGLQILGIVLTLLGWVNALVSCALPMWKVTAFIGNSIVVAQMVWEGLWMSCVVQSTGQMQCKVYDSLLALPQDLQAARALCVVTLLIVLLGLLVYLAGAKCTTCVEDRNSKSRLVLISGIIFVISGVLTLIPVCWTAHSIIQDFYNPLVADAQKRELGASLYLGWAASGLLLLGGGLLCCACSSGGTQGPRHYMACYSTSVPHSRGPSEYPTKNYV

[5] = target: human CLDN6 fused to GFP, expressed on engineered HEK293T cells (human) (UniProt P56747); assay: flow cytometry on HEK293T CLDN6-mGFP A11 cells (Positive Artificial OE Cell Line), secondary antibody alone; the same number stands under the 0.1µg and the 1µg head
[6] = target: human CLDN6, endogenously expressed on cancer cell lines (human) (UniProt P56747); assay: FACS, ARK2 cells, secondary antibody alone (negative control, background; column 0.3 ug)
[7] = target: human CLDN6 fused to GFP, expressed on engineered HEK293T cells (human) (UniProt P56747); assay: FACS, 293T clone with human CLDN6, secondary antibody alone (negative control, background; column 1.5 ug Ab)
[8] = target: human CLDN6 fused to GFP, expressed on engineered HEK293T cells (human) (UniProt P56747); assay: FACS on 293T CLDN6 mGFP Clone A11 cells, secondary antibody only; number from the data table under the bars
[9] = target: human CLDN6 fused to GFP, expressed on engineered HEK293T cells (human) (UniProt P56747); assay: FACS, 293T clone with human CLDN6, secondary antibody alone (negative control, background; column 0.3 ug Ab)
[10] = target: human CLDN6, endogenously expressed on cancer cell lines (human) (UniProt P56747); assay: FACS on ARK2 cells, secondary antibody only; number from the data table under the bars
[11] = target: human CLDN6, endogenously expressed on cancer cell lines (human) (UniProt P56747); assay: FACS, ARK2 cells, secondary antibody alone (negative control, background; column 1.5 ug)

Chain of human CLDN6, endogenously expressed on cancer cell lines (human) (P56747 whole entry, the tested form may be a part): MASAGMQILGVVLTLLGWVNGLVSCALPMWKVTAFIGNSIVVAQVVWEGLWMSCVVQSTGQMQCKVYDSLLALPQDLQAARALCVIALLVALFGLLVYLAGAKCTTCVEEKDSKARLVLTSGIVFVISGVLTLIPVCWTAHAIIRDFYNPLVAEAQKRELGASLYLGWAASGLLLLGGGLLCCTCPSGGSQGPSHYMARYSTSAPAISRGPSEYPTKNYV

flow cytometry signal [1]: 1110
Dylight 649 Signal by C6 [2]: 1210
FACS signal [3]: 886
FACS signal [4]: 1060
flow cytometry signal [5]: 1240
FACS signal [6]: 1350
FACS signal [7]: 768
FACS signal [9]: 768
FACS signal [11]: 1350
Substance: 2nd Ab only (secondary detection antibody alone, negative control)
FL4H Singlets in Viable cells [8]: 9420
FL4H Singlets in Viable cells [10]: 9130
